Experimental data from article doi:10.1101/2021.04.23.441069.

Experiments:
[1] = molecular target: NyxA (purified, not held on the resin) (Brucella abortus 2308) (UniProt Q2YPD9); assay: […]
[2] = molecular target: NyxB (untagged, His tag cleaved with TEV) (Brucella abortus 2308) (UniProt Q2YPZ9); assay: […]

Substance | stoichiometry N [1] | stoichiometry N [2]
NyxA (purified, not held on the resin) (from UniProt Q2YPD9 1-129) (natural protein) | 2 | –
NyxB (untagged, His tag cleaved with TEV) (from UniProt Q2YPZ9 1-134) (natural protein) | – | 2
